Source: PMC12871931, “The importin‐alpha superfamily engages in ethylene signaling by shuttling ETHYLENE INSENSITIVE 2 from the endoplasmic reticulum to the nucleus” (The Febs Journal, 2025)

Target: TAMRA‐NOP‐1 (EIN2 NLS peptide, N‐terminally labeled with 5‐TAMRA) (Arabidopsis thaliana)
Assay: fluorescence polarisation; direct titration: TAMRA-NOP-1 constant at 250 nM, IMPα protein concentration varied; 50 μL samples; LS55 spectrometer; Kd by Logistic Fit in Origin; three independent measurements

IMPα7_ΔIBB (importin α7 lacking the N-terminal importin β binding domain), Arabidopsis thaliana, recombinant (domain or fragment)
Kd: 3 µM

ΔIBB_IMPα1 (importin α1 lacking the IBB domain), Arabidopsis thaliana, recombinant (domain or fragment)
Kd: 3.2 µM
